Laboratory results as given in IntAct's records for PubMed 11980910.

B1: Dual specificity mitogen-activated protein kinase kinase 3 (Homo sapiens), P46734 (parent)
chain: MESPASSQPASMPQSKGKSKRKKDLRISCMSKPPAPNPTPPRNLDSRTFITIGDRNFEVEADDLVTISELGRGAYGVVEKVRHAQSGTIMAVKRIRATVNSQEQKRLLMDLDINMRTVDCFYTVTFYGALFREGDVWICMELMDTSLDKFYRKVLDKNMTIPEDILGEIAVSIVRALEHLHSKLSVIHRDVKPSNVLINKEGHVKMCDFGISGYLVDSVAKTMDAGCKPYMAPERINPELNQKGYNVKSDVWSLGITMIEMAILRFPYESWGTPFQQLKQVVEEPSPQLPADRFSPEFVDFTAQCLRKNPAERMSYLELMEHPFFTLHKTKKTDIAAFVKEILGEDS

Variants of: B1
Conditions: with dyr1b_human DYRK1B

Row | Variant | effect of a mutation on the interaction
1 | MESPASSQPASMPQSKGKSKRKKDLRISCMSKPPAPNPTPPRNLDSRTFITIGDRNFEVEADDLVTISELGRGAYGVVEKVRHAQSGTIMAVKRIRATVNSQEQKRLLMDLDINMRTVDCFYTVTFYGALFREGDVWICMELMDTSLDKFYRKVLDKNMTIPEDILGEIAVSIVRALEHLHSKLSVIHRDVKPSNVLINKEGHVKMCDFGISGYLVDEVAKTMDAGCKPYMAPERINPELNQKGYNVKSDVWSLGITMIEMAILRFPYESWGTPFQQLKQVVEEPSPQLPADRFSPEFVDFTAQCLRKNPAERMSYLELMEHPFFTLHKTKKTDIAAFVKEILGEDS [S218E] | increasing interaction
2 | MESPASSQPASMPQSKGKSKRKKDLRISCMSKPPAPNPTPPRNLDSRTFITIGDRNFEVEADDLVTISELGRGAYGVVEKVRHAQSGTIMAVKRIRATVNSQEQKRLLMDLDINMRTVDCFYTVTFYGALFREGDVWICMELMDTSLDKFYRKVLDKNMTIPEDILGEIAVSIVRALEHLHSKLSVIHRDVKPSNVLINKEGHVKMCDFGISGYLVDSVAKEMDAGCKPYMAPERINPELNQKGYNVKSDVWSLGITMIEMAILRFPYESWGTPFQQLKQVVEEPSPQLPADRFSPEFVDFTAQCLRKNPAERMSYLELMEHPFFTLHKTKKTDIAAFVKEILGEDS [T222E] | increasing interaction
